For assay [1], the target named is T1, endogenous HDAC6 (A549 cells) (human, UniProt Q9UBN7 1-1215).
T1 construct: Endogenous intracellular protein, not a recombinant construct; also called histone deacetylase 6
T1 sequence (looked up): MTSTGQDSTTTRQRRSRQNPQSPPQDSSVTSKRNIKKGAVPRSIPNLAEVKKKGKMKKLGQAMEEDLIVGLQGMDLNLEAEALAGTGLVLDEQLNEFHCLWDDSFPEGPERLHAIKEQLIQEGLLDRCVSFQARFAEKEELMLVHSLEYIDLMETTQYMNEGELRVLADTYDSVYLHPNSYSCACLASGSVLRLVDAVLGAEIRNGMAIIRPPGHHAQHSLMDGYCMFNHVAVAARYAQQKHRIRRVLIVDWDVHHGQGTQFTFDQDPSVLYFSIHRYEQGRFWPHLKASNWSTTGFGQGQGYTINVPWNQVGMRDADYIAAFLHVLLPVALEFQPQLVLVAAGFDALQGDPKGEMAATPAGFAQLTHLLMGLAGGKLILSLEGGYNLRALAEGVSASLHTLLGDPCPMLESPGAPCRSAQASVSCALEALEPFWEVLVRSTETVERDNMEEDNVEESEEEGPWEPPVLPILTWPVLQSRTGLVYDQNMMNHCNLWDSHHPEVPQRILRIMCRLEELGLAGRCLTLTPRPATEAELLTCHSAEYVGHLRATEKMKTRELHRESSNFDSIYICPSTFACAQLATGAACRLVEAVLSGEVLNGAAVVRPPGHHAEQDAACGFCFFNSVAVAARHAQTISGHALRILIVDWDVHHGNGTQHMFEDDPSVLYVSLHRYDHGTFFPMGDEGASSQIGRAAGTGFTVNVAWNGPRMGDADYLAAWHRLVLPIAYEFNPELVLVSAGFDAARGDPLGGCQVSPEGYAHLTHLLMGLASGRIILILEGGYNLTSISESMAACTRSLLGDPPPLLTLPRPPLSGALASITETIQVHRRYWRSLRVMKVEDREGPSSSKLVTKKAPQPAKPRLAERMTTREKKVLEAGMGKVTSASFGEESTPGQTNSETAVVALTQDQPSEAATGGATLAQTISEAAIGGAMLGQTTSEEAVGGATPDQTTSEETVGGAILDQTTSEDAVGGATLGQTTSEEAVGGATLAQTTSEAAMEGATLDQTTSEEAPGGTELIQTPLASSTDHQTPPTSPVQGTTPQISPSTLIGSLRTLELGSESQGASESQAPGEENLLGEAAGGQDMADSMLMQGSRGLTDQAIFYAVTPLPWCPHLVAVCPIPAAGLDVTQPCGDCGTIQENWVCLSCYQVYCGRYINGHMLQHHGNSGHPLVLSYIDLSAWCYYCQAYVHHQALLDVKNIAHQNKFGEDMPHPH
Kind of assay: GFP-trap immunoprecipitation of GFP-DARPin F10 against control GFP-DARPin E3_5 from A549 cells, mass spectrometry, volcano plot. The text has this: (§1) [0013] (A) Schematic of HDAC6, showing the catalytic domains (CD1, CD2) and the zinc finger domain (ZnF) region that was expressed (amino acids 1108 to 1215) and used to identify binders. Generic nanobody and DARPin structures (PDB:1I3V and PDB:2QJY, respectively) are shown below. […] [0014] […] PD, pull-down; FT, flow-through. [0015] […] A plasmid expressing mRuby was included in all transfections as a control for transfection efficiency (red signal). Scale bar presents […]. [0016] […] [0017] […] Immunoprecipitated material (from D above) was analysed by mass spectrometry and enriched proteins are annotated.

For another assay, the target named is T2, GFP(10)-ubiquitin (UniProt P0CG48 1-76).
T2 construct: Expressed in 293T cells; not shown: GFP beta strand 10 and any linker
Description: split-GFP assay in 293T cells (specificity control).

Assay [2] concerns the target T3, Purified His-tagged human HDAC6 ZnF domain (1108-1215) (human, UniProt Q9UBN7 1108-1215).
T3 construct: range 1108-1215; also called ZnF-UBP; His-HDAC6 ZnF (1108-1215); not shown: His tag from vector pOPINF
T3 sequence (looked up): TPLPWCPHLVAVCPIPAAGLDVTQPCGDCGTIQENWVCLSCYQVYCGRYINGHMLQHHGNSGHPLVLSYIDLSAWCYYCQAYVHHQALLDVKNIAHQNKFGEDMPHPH
Kind of assay: pull-down with anti-Flag agarose beads from a mix of His-ZnF (1108-1215), Flag-DARPin and mono-ubiquitin; immunoblot with anti-His, anti-ubiquitin and anti-Flag.
Text: as §1
On the technique in general: Immunoblotting shows a protein as a band on a membrane.

Residue numbers refer to the chain shown, from its start. Names may count otherwise.

B1: GFP-DARPin F10 fusion protein (designed binder)
chain: DLGKKLLEAARAGQDDEVRILMANGADVNANDRNGVTPLHLAADKGHLEIVEVLLKTGADVNAIDIMGATPLHLAAAHGHLEIVEVLLKAGADVNAMDHKGFTPLHLAAWRGHLEIVEVLLKHGADVNAQDKFGKTPFDLAIDNGNEDIAEVLQKAA
notes: Transiently expressed in A549 cells from pcDNA3.1-GFP-DARPin F10; not shown: GFP and any linker
For B1, in assay [1], the binding result is on record as “binds”.

B2: GFP(11)-HDAC6 ZnF (1108-1215) W1182A mutant (other, human, UniProt Q9UBN7 1108-1215, looked up)
chain: T3 sequence (looked up) with W75A
notes: range 1108-1215; Specificity control in the split-GFP assay; also called ZnFm; 1182 mutant; not shown: GFP beta strand 11 and any linker
For the molecule B2, the binding result in the assay with GFP(10)-ubiquitin is given as “no binding”.

B3: Flag-tagged DARPin F10 (F10 with histidine and detection tags) (designed binder)
chain: MRGSHHHHHHHHGSDLGKKLLEAARAGQDDEVRILMANGADVNANDRNGVTPLHLAADKGHLEIVEVLLKTGADVNAIDIMGATPLHLAAAHGHLEIVEVLLKAGADVNAMDHKGFTPLHLAAWRGHLEIVEVLLKHGADVNAQDKFGKTPFDLAIDNGNEDIAEVLQKAAKLNDYKDDDDK
As to B3, the binding result in assay [2] is reported as “binds”.
